Source: PMC10397247
Blank lines part the entries; values can stand above or below the binder they belong to.

Assays:
[1] = biological target: T1, 4H3172-bN; assay: two-hybrid library CCNG1;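 note: natural log of median RNA to DNA barcode read ratio; higher means stronger binding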
T1 chain: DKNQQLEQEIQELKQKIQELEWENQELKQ

[2] = biological target: T2, 4H3974-bN; assay: two-hybrid library CCNG1;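 note: natural log of median RNA to DNA barcode read ratio; higher means stronger binding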
T2 chain: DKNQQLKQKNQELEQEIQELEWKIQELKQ

[3] = biological target: T3, 4H3638-bN; assay: two-hybrid library CCNG1;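 note: natural log of median RNA to DNA barcode read ratio; higher means stronger binding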
T3 chain: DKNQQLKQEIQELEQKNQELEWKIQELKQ

[4] = biological target: T4, 4H570-bN; assay: two-hybrid library CCNG1;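 note: natural log of median RNA to DNA barcode read ratio; higher means stronger binding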
T4 chain: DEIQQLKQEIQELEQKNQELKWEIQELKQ

[5] = biological target: T5, 4H619-bN; assay: two-hybrid library CCNG1;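 note: natural log of median RNA to DNA barcode read ratio; higher means stronger binding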
T5 chain: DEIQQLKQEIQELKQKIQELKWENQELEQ

[6] = biological target: T6, 4H584-bN; assay: two-hybrid library CCNG1;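 note: natural log of median RNA to DNA barcode read ratio; higher means stronger binding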
T6 chain: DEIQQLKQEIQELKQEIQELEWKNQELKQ

[7] = biological target: T7, 4H3129-bN; assay: two-hybrid library CCNG1
T7 chain: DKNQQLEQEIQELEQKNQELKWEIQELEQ

[8] = biological target: T8, 4H850-bN; assay: two-hybrid library CCNG1
T8 chain: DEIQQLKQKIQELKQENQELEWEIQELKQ

[9] = biological target: T9, 4H3631-bN; assay: two-hybrid library CCNG1
T9 chain: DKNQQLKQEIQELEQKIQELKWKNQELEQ

[10] = biological target: T10, 4H906-bN; assay: two-hybrid library CCNG1
T10 chain: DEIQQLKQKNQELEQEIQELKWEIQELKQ

[11] = biological target: T11, 4H3817-bN; assay: two-hybrid library CCNG1
T11 chain: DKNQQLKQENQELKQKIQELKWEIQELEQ

[12] = biological target: T12, 4H3414-bN; assay: two-hybrid library CCNG1
T12 chain: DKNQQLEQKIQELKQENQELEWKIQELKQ

[13] = biological target: T13, O6-bH; assay: two-hybrid library CCNG1
T13 chain: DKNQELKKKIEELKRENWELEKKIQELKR

[14] = biological target: T14, O8-bH; assay: two-hybrid library CCNG1
T14 chain: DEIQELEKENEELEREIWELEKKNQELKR

[15] = biological target: T15, O7-bH; assay: two-hybrid library CCNG1
T15 chain: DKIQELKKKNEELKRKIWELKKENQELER

[16] = biological target: T16, O9-bH; assay: two-hybrid library CCNG1
T16 chain: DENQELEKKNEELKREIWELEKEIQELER

[17] = biological target: T17, O5-bH; assay: two-hybrid library CCNG1
T17 chain: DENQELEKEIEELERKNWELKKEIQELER

[18] = biological target: T18, O3-bH; assay: two-hybrid library CCNG1
T18 chain: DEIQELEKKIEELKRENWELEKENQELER

[19] = biological target: T19, O4-bH; assay: two-hybrid library CCNG1
T19 chain: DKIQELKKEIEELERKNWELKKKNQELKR

[20] = biological target: T20, APC2724-AA; assay: two-hybrid library CCmax; details: mean of both orientations
T20 chain: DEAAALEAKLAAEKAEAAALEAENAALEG

[21] = biological target: T21, APC4100-AA; assay: two-hybrid library CCmax; details: mean of both orientations
T21 chain: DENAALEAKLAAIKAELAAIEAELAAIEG

[22] = biological target: T22, APC7524-AA; assay: two-hybrid library CCmax; details: mean of both orientations
T22 chain: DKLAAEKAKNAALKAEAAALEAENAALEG

[23] = biological target: T23, APC9291-AA; assay: two-hybrid library CCmax; details: mean of both orientations
T23 chain: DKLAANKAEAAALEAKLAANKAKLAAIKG

[24] = biological target: T24, APC9806-AA; assay: two-hybrid library CCmax; details: mean of both orientations
T24 chain: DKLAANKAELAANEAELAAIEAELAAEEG

[25] = biological target: T25, APC3323-AA; assay: two-hybrid library CCmax; details: mean of both orientations
T25 chain: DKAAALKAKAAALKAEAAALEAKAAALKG

[26] = biological target: T26, APC2811-AA; assay: two-hybrid library CCmax; details: mean of both orientations
T26 chain: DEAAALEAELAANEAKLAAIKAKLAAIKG

[27] = biological target: T27, APC3265-AA; assay: two-hybrid library CCmax; details: mean of both orientations
T27 chain: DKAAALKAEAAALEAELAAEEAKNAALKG

[28] = biological target: T28, APC8516-AA; assay: two-hybrid library CCmax; details: mean of both orientations
T28 chain: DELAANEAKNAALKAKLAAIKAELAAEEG

[29] = biological target: T29, APC2556-AA; assay: two-hybrid library CCmax
T29 chain: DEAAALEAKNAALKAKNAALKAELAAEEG

[30] = biological target: T30, APC3354-AA; assay: two-hybrid library CCmax; details: mean of both orientations
T30 chain: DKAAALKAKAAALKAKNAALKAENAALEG

[31] = biological target: T31, APC542-AA; assay: two-hybrid library CCmax; details: mean of both orientations
T31 chain: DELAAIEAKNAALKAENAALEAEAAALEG

[32] = biological target: T32, APC6088-AA; assay: two-hybrid library CCmax; details: mean of both orientations
T32 chain: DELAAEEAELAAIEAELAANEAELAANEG

[33] = biological target: T33, APC3881-AA; assay: two-hybrid library CCmax; details: mean of both orientations
T33 chain: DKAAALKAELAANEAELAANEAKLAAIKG

[34] = biological target: T34, APC5531-AA; assay: two-hybrid library CCmax; details: mean of both orientations
T34 chain: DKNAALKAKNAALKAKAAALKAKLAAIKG

[35] = biological target: T35, APC9182-AA; assay: two-hybrid library CCmax; details: mean of both orientations
T35 chain: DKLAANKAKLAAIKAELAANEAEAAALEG

[36] = biological target: T36, APC2981-AA; assay: two-hybrid library CCmax; details: mean of both orientations
T36 chain: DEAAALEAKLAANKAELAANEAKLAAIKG

[37] = biological target: T37, APC4336-AA; assay: two-hybrid library CCmax; details: mean of both orientations
T37 chain: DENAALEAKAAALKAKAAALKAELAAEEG

[38] = biological target: T38, APC9141-AA; assay: two-hybrid library CCmax; details: mean of both orientations
T38 chain: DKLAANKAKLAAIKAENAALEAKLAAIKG

[39] = biological target: T39, APC5009-AA; assay: two-hybrid library CCmax; details: mean of both orientations
T39 chain: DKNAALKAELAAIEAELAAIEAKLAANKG

[40] = biological target: T40, APC8401-AA; assay: two-hybrid library CCmax; details: mean of both orientations
T40 chain: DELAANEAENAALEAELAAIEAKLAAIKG

interaction score [1]: -0.806
interaction score [2]: -0.744
interaction score [3]: -1.26
interaction score [4]: -0.835
interaction score [5]: -0.774
interaction score [6]: -1.09
interaction score [7]: -0.749
interaction score [8]: -1.41
interaction score [9]: -1.47
interaction score [10]: -1.2
interaction score [11]: -1.45
interaction score [12]: 1.09
B1: 4H3129-bN (peptide)
chain: DKNQQLEQEIQELEQKNQELKWEIQELEQ

interaction score [13]: -0.104
interaction score [14]: 0.212
interaction score [15]: -0.247
interaction score [16]: -0.716
interaction score [17]: -0.92
interaction score [18]: -0.176
interaction score [19]: 2.01
B2: O3-bH (peptide)
chain: DEIQELEKKIEELKRENWELEKENQELER

interaction score [20]: -1.65
interaction score [21]: -2.2
interaction score [22]: -2.09
interaction score [23]: -1.79
interaction score [24]: -2.15
interaction score [25]: -1.82
interaction score [26]: -1.73
interaction score [27]: -1.69
interaction score [28]: -2.01
interaction score [29]: -1.78
interaction score [30]: -1.9
interaction score [31]: -1.72
interaction score [32]: -1.75
interaction score [33]: -1.61
interaction score [34]: -1.7
interaction score [35]: -1.74
interaction score [36]: -1.98
interaction score [37]: -1.77
interaction score [38]: -1.94
interaction score [39]: -1.65
interaction score [40]: -1.48
B3: APC2556-AA (peptide)
chain: DEAAALEAKNAALKAKNAALKAELAAEEG
